Changes are numbered by the printed parent chain.
B1: Example 162 (peptide)
chain: YXQGTFTSDFSXXLDKKAQXAFIEYLLEGGHSSGAPPPGGS
modifications: Aib, Orn, αMeL; acylated Lys; C-terminal amide; synthetic construct; SITE 2: note = 2-Aminoisobutyric Acid; SITE 12: note = L-ornithine; SITE 13: note = alpha-methyl-leucine; SITE 17: note = Lysine is chemically modified through conjugation of the epsilon-amino group of the Lysine side chain with (2-[2-(2-Amino-ethoxy)-ethoxy]-acetyl)-(gamma-Glu)
B2: Example 165 (peptide)
chain: B1 chain with G29X, H31P, G39S, S41T
modifications: non-natural residues, acylated Lys, C-terminal amide; synthetic construct; SITE 2: note = 2-Aminoisobutyric Acid; SITE 12: note = L-ornithine; SITE 13: note = alpha-methyl-leucine; SITE 17: note = Lysine is chemically modified through conjugation of the epsilon-amino group of the Lysine side chain with (2-[2-(2-Amino-ethoxy)-ethoxy]-acetyl)2-(gamma-Glu)
B3: Example 167 (peptide)
chain: B1 chain with G29X, H31P, A35E, G39S, S41T
modifications: non-natural residues (Aib, Orn, αMeL); lipidated K; C-terminal amide; synthetic construct; SITE 2: note = 2-Aminoisobutyric Acid; SITE 12: note = L-ornithine; SITE 13: note = alpha-methyl-leucine; SITE 17: note = Lysine is chemically modified through conjugation of the epsilon-amino group of the Lysine side chain with (2-[2-(2-Amino-ethoxy)-ethoxy]-acetyl)2-(gamma-Glu)
B4: Example 163 (peptide)
chain: B1 chain with H31X
modifications: non-natural residues; lysine acylated with AEEA linker C18 diacid; C-amide; synthetic construct; SITE 2: note = 2-Aminoisobutyric Acid; SITE 12: note = L-ornithine; SITE 13: note = alpha-methyl-leucine; SITE 17: note = Lysine is chemically modified through conjugation of the epsilon-amino group of the Lysine side chain with (2-[2-(2-Amino-ethoxy)-ethoxy]-acetyl)-(gamma-Glu)
B5: Example 172 (peptide)
chain: B1 chain with Y25W, H31S, G39S, S41E
modifications: Aib, Orn, αMeL, acylated Lys, amide; synthetic construct; SITE 2: note = 2-Aminoisobutyric Acid; SITE 12: note = L-ornithine; SITE 13: note = alpha-methyl-leucine; SITE 17: note = Lysine is chemically modified through conjugation of the epsilon-amino group of the Lysine side chain with (2-[2-(2-Amino-ethoxy)-ethoxy]-acetyl)-(gamma-Glu)
B6: Example 179 (peptide)
chain: B1 chain with G29X, H31E, G39S
modifications: non-natural residues (Aib, Orn, αMeL); lipidated K; C-terminal amide; synthetic construct; SITE 2: note = 2-Aminoisobutyric Acid; SITE 12: note = L-ornithine; SITE 13: note = alpha-methyl-leucine; SITE 17: note = Lysine is chemically modified through conjugation of the epsilon-amino group of the Lysine side chain with (2-[2-(2-Amino-ethoxy)-ethoxy]-acetyl)2-(gamma-Glu)
B7: Example 174 (peptide)
chain: B1 chain with Y25W, H31S, G39S, S41T
modifications: non-natural residues, acylated Lys, C-terminal amide; synthetic construct; SITE 2: note = 2-Aminoisobutyric Acid; SITE 12: note = L-ornithine; SITE 13: note = alpha-methyl-leucine; SITE 17: note = Lysine is chemically modified through conjugation of the epsilon-amino group of the Lysine side chain with (2-[2-(2-Amino-ethoxy)-ethoxy]-acetyl)-(gamma-Glu)
B8: Example 169 (peptide)
chain: B1 chain with Y25W, G39S, S41E
modifications: acylated Lys, C-terminal amide, non-natural residues; synthetic construct; SITE 2: note = 2-Aminoisobutyric Acid; SITE 12: note = L-ornithine; SITE 13: note = alpha-methyl-leucine; SITE 17: note = Lysine is chemically modified through conjugation of the epsilon-amino group of the Lysine side chain with (2-[2-(2-Amino-ethoxy)-ethoxy]-acetyl)2-(gamma-Glu)

Legend:
Experiment in all cases: cell-based or functional assay
[1] = target: human glucagon receptor (human) (UniProt P47871)
[2] = target: human GLP-1R (SNAP-GLP-1R expressed in HEK293 cells) (human) (UniProt P43220)
[3] = target: T1, human GIP receptor (human) (UniProt P48546)
T1 sequence (looked up): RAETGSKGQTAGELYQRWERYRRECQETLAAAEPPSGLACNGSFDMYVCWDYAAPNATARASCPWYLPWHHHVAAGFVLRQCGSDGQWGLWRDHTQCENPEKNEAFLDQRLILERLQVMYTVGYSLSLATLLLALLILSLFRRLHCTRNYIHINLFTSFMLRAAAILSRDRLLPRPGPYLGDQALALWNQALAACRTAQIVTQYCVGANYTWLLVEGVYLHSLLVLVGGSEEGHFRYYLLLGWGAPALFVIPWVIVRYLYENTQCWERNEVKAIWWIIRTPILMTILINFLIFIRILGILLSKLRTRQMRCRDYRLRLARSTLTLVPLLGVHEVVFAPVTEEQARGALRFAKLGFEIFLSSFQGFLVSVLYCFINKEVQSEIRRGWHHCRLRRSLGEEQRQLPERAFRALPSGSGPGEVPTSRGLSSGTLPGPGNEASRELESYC

hGLP-1R = hGLP-1R (Homo sapiens, UniProt P43220)
Sequence of hGLP-1R (P43220 24-463): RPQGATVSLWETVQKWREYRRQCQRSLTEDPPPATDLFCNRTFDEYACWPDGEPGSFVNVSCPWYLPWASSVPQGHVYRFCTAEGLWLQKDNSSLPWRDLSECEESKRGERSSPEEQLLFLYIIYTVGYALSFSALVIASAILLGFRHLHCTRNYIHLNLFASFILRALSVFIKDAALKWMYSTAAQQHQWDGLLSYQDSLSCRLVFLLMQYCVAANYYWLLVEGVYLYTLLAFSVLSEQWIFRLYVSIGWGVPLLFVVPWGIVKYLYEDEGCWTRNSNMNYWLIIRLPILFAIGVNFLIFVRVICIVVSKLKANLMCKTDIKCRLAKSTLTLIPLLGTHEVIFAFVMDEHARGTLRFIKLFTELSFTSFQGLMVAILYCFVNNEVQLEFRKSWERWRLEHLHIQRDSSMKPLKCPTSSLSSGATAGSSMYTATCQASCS

Sequence of human GLP-1R (SNAP-GLP-1R expressed in HEK293 cells) (human) (P43220 24-463): as above
Sequence of human glucagon receptor (human) (P47871 26-477): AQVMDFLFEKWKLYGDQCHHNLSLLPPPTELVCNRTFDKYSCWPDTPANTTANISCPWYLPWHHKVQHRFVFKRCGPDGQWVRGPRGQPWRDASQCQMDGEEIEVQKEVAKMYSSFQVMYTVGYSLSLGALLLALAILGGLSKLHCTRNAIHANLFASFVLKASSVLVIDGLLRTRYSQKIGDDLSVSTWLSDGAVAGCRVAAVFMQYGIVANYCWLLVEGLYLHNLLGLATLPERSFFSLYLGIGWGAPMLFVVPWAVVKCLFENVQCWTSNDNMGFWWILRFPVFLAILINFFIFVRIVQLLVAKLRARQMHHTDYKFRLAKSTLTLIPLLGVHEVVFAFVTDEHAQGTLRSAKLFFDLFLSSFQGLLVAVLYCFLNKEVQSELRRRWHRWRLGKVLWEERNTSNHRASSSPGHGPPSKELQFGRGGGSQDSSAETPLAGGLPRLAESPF

| Binder | Relative cAMP EC50, nM (0.1% casein) [1] [nM] | cAMP Rel EC50, nM (1% HSA) [1] [nM] | GLP1R Internalization EC50 [2] [nM] | Internalization % TOP [2] [%] | Relative cAMP EC50, nM (0.1% casein) [3] [nM] | cAMP Rel EC50, nM (1% HSA) [3] [nM] | Relative cAMP EC50, nM (0.1% casein) (hGLP-1R) [nM] | cAMP Rel EC50, nM (1% HSA) (hGLP-1R) [nM] |
| --- | --- | --- | --- | --- | --- | --- | --- | --- |
| B1 | 4.72 | 558 | 48.8 | 44.8 | 0.222 | 37.5 | 4.72 | 786 |
| B2 | 4.47 | 1250 | 57.5 | 44.5 | 0.0956 | 18.6 | 6.52 | 808 |
| B3 | 5.05 | 938 | 75.9 | 44.7 | 0.101 | 24.7 | 6.19 | 1300 |
| B4 | 5.6 | 790 | 143 | 37.8 | 0.376 | 52 | 6.5 | 762 |
| B5 | 3.38 | 605 | 121 | 41.4 | 0.174 | 29.3 | 3.5 | 457 |
| B6 | 4.82 | 1440 | 63.4 | 48.4 | 0.104 | 21.3 | 5.81 | 904 |
| B7 | 4.24 | 307 | 123 | 52.8 | 0.198 | 20.8 | 2.33 | 208 |
| B8 | 11.7 | 439 | 178 | 49.4 | 0.209 | 21.5 | 6.17 | 216 |
